Data reported in patent CN116262786A (NANJING RONGJIEKANG BIOTECHNOLOGY CO LTD, dated 2023).

Experiments:
[1] = biological target: T1, 人源重组FOLR1蛋白 (人源FOLR1重组胞外结构域蛋白) (human, UniProt P15328 25-233); experiment: ELISA, coated FOLR1 1 μg/mL, purified prokaryotic VHH titrated from 2 μg/mL, anti-HA-HRP
T1 construct: range 25-233; a tag is not mentioned; also called FOLR1重组蛋白; 人FOLR1

[2] = biological target: T1, 人源重组FOLR1蛋白 (人源FOLR1重组胞外结构域蛋白); experiment: ELISA, coated FOLR1 of each species 1 μg/mL, VHH-hFc titrated from 2 μg/mL, goat anti-human IgG-HRP
小鼠FOLR1 = biological target: T2, 小鼠FOLR1 (小鼠 (mouse), UniProt P35846 25-232, limits assumed); experiment: as above
T2 construct: also called mouse FOLR1

[3] = biological target: T1, 人源重组FOLR1蛋白 (人源FOLR1重组胞外结构域蛋白); experiment: ELISA of crude periplasmic extract on coated FOLR1 recombinant protein, anti-HA-HRP; positive = OD more than 5 times control

T1 sequence (P15328 25-233 limits assumed): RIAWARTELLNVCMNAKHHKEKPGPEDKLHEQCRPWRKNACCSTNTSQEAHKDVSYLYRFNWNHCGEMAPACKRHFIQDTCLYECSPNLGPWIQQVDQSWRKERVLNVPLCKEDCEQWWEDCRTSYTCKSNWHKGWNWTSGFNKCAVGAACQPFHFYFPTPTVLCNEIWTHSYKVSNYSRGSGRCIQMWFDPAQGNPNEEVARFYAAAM
T2 sequence (P35846 25-232 limits assumed): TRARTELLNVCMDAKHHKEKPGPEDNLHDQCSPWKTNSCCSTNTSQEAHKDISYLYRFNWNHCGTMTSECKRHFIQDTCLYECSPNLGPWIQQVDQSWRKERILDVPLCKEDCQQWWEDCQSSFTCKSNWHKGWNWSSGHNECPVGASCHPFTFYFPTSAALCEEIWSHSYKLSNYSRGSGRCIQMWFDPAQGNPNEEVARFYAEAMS

binding result [1] | binding result [2] | binding result (小鼠FOLR1) | binding result [3] | Binder
binds | – | – | – | 单域抗体3B3 (VHH, Prokaryotic (E. coli) VHH from pMECS-VHH; also called VHH4; not shown: tags from vector pMECS (detected with anti-HA, purified on nickel column)) VHH: QVQLVESGGGSVQAGGSLRLSCAASGYTYRRLSMGWFRQAPGKEREAVGGIYTGESMTYYADSVRGRFTISQDNAQNTVYLQMNSLKPEDTATYYCAATPQFLIGSGLLRPDKYDSWGQGTQVTVSS
– | binds | binds | – | 3B3-hFC1 (Fc fusion, human, not shown: a dimerising Fc or GST; small tags and cut ends, domain: Fc区段 (铰链区 Hinge, CH2和CH3区); VHH cloned into vector RJK-V4-hFC; also called VHH-hFc 3B3; 单域抗体3B3的Fc融合抗体) QVQLVESGGGSVQAGGSLRLSCAASGYTYRRLSMGWFRQAPGKEREAVGGIYTGESMTYYADSVRGRFTISQDNAQNTVYLQMNSLKPEDTATYYCAATPQFLIGSGLLRPDKYDSWGQGTQVTVSS
binds | – | – | – | 单域抗体4B10 (VHH, Prokaryotic (E. coli) VHH from pMECS-VHH; also called VHH14; not shown: tags from vector pMECS (detected with anti-HA, purified on nickel column)) VHH: QVQLVESGGGLVQAGGSLRLSCTASGFTFDDYAMGWFRQAPGKEREGVSCISWNGGSTFYADSVKGRFTIVRDNAKNTVYLEMNSLKPEDTAMYYCAALAYCSGGHWSPGDLSGGYWGQGTQVTVSS
– | binds | binds | – | 4B10-hFC1 (Fc fusion, human, not shown: a dimerising Fc or GST; small tags and cut ends, domain: Fc区段 (铰链区 Hinge, CH2和CH3区); VHH cloned into vector RJK-V4-hFC; also called VHH-hFc 4B10; 单域抗体4B10的Fc融合抗体) QVQLVESGGGLVQAGGSLRLSCTASGFTFDDYAMGWFRQAPGKEREGVSCISWNGGSTFYADSVKGRFTIVRDNAKNTVYLEMNSLKPEDTAMYYCAALAYCSGGHWSPGDLSGGYWGQGTQVTVSS
binds | – | – | – | 单域抗体4E11 (VHH, Prokaryotic (E. coli) VHH from pMECS-VHH; also called VHH18; not shown: tags from vector pMECS (detected with anti-HA, purified on nickel column)) VHH: QVQLVESGGGSVQAGGSLRLSCAVSGYTYSSNSMGWFRQAPGKEREGVAAIYTGGGSTYYADSVKGRFTISQDNAKNTVYLQMNSLKPEDTAMYYCAAGGPTWYDGSWSRGDEYTYWGQGTQVTVSS
– | binds | binds | – | 4E11-hFC1 (Fc fusion, human, not shown: a dimerising Fc or GST; small tags and cut ends, domain: Fc区段 (铰链区 Hinge, CH2和CH3区); VHH cloned into vector RJK-V4-hFC; also called VHH-hFc 4E11; 单域抗体4E11的Fc融合抗体) QVQLVESGGGSVQAGGSLRLSCAVSGYTYSSNSMGWFRQAPGKEREGVAAIYTGGGSTYYADSVKGRFTISQDNAKNTVYLQMNSLKPEDTAMYYCAAGGPTWYDGSWSRGDEYTYWGQGTQVTVSS

The next lines start with the binder.

Binder | binding result [1] | binding result [2] | binding result (小鼠FOLR1) | binding result [3]
单域抗体2E5 (VHH, Prokaryotic (E. coli) VHH from pMECS-VHH; also called VHH11; not shown: tags from vector pMECS (detected with anti-HA, purified on nickel column)) VHH: QVQLVESGGGSVQAGGSLRLSCAASGYPYHRVSMGWFRQAPGKEREGVAGIYTGGLYTGGSMTYYADSVKGRFTISQDNARNTVYLQMNSLKPEDTAMYYCAATPQFLIGSGLLRPDKYNSWGQGTQVTVSS | binds | – | – | –
2E5-hFC1 (Fc fusion, human, not shown: a dimerising Fc or GST; small tags and cut ends, domain: Fc区段 (铰链区 Hinge, CH2和CH3区); VHH cloned into vector RJK-V4-hFC; also called VHH-hFc 2E5; 单域抗体2E5的Fc融合抗体) QVQLVESGGGSVQAGGSLRLSCAASGYPYHRVSMGWFRQAPGKEREGVAGIYTGGLYTGGSMTYYADSVKGRFTISQDNARNTVYLQMNSLKPEDTAMYYCAATPQFLIGSGLLRPDKYNSWGQGTQVTVSS | – | binds | binds | –
单域抗体1D11 (VHH, Prokaryotic (E. coli) VHH from pMECS-VHH; also called VHH2; not shown: tags from vector pMECS (detected with anti-HA, purified on nickel column)) VHH: QVQLVESGGGSVQAGGSLRLSCAASGDTYSSACMDWFRQAPGKEREGVAGISSGGSTYYADSVKGRFTISRDNAKNTLYLQMNSLKPEDTAMYYCAARRVGRIPCRTMLPGLQDYWGQGTQVTVSS | – | – | – | binds
1D11-hFC1 (Fc fusion, human, not shown: a dimerising Fc or GST; small tags and cut ends, domain: Fc区段 (铰链区 Hinge, CH2和CH3区); VHH cloned into vector RJK-V4-hFC; also called VHH-hFc 1D11; 单域抗体1D11的Fc融合抗体) QVQLVESGGGSVQAGGSLRLSCAASGDTYSSACMDWFRQAPGKEREGVAGISSGGSTYYADSVKGRFTISRDNAKNTLYLQMNSLKPEDTAMYYCAARRVGRIPCRTMLPGLQDYWGQGTQVTVSS | – | binds | binds | –
单域抗体3H11 (VHH, Prokaryotic (E. coli) VHH from pMECS-VHH; also called VHH15; not shown: tags from vector pMECS (detected with anti-HA, purified on nickel column)) VHH: QVQLVESGGGSVQTGGSPRLSCAVSGHTYSRLSMGWFRQAPGKEREGVAGIYTGGPSGPMTYYADSVKGRFTISQDNAQRTVYLQMNSLKPEDTAMYYCAATPQFLIGSGLLRPDKYNSWGQGTQVTVSS | binds | – | – | –
3H11-hFC1 (Fc fusion, human, not shown: a dimerising Fc or GST; small tags and cut ends, domain: Fc区段 (铰链区 Hinge, CH2和CH3区); VHH cloned into vector RJK-V4-hFC; also called VHH-hFc 3H11; 单域抗体3H11的Fc融合抗体) QVQLVESGGGSVQTGGSPRLSCAVSGHTYSRLSMGWFRQAPGKEREGVAGIYTGGPSGPMTYYADSVKGRFTISQDNAQRTVYLQMNSLKPEDTAMYYCAATPQFLIGSGLLRPDKYNSWGQGTQVTVSS | – | binds | binds | –
单域抗体2D8 (VHH, Prokaryotic (E. coli) VHH from pMECS-VHH; also called VHH8; not shown: tags from vector pMECS (detected with anti-HA, purified on nickel column)) VHH: QVQLVESGGGSVQAGGSLRLSCAASDYTYRRYCMGWFRQAPGKEREKVAAIYLGDGTTYYTDSVKGRFTISQENAKNTIYLQMNNLKPEDTAMYYCAADRSGCSVTWSYSAFEDWGQGTQVTVSS | binds | – | – | –
2D8-hFC1 (Fc fusion, human, not shown: a dimerising Fc or GST; small tags and cut ends, domain: Fc区段 (铰链区 Hinge, CH2和CH3区); VHH cloned into vector RJK-V4-hFC; also called VHH-hFc 2D8; 单域抗体2D8的Fc融合抗体) QVQLVESGGGSVQAGGSLRLSCAASDYTYRRYCMGWFRQAPGKEREKVAAIYLGDGTTYYTDSVKGRFTISQENAKNTIYLQMNNLKPEDTAMYYCAADRSGCSVTWSYSAFEDWGQGTQVTVSS | – | binds | binds | –
